# Positions count from the first letter of the chain named.
# B1: Pol3 (fission yeast DNA polymerase delta catalytic subunit) (natural protein, Schizosaccharomyces pombe, UniProt P30316 1-1086, looked up)
# chain: MTDRSSNEGVVLNKENYPFPRRNGSIHGEITDVKRRRLSERNGYGDKKGSSSKEKTSSFEDELAEYASQLDQDEIKSSKDQQWQRPALPAINPEKDDIYFQQIDSEEFTEGSVPSIRLFGVTDNGNSILVHVVGFLPYFYVKAPVGFRPEMLERFTQDLDATCNGGVIDHCIIEMKENLYGFQGNEKSPFIKIFTTNPRILSRARNVFERGEFNFEELFPVGVGVTTFESNTQYLLRFMIDCDVVGMNWIHLPASKYQFRYQNRVSNCQIEAWINYKDLISLPAEGQWSKMAPLRIMSFDIECAGRKGVFPDPSIDPVIQIASIVTQYGDSTPFVRNVFCVDTCSQIVGTQVYEFQNQAEMLSSWSKFVRDVDPDVLIGYNICNFDIPYLLDRAKSLRIHNFPLLGRIHNFFSVAKETTFSSKAYGTRESKTTSIPGRLQLDMLQVMQRDFKLRSYSLNAVCSQFLGEQKEDVHYSIITDLQNGTADSRRRLAIYCLKDAYLPQRLMDKLMCFVNYTEMARVTGVPFNFLLARGQQIKVISQLFRKALQHDLVVPNIRVNGTDEQYEGATVIEPIKGYYDTPIATLDFSSLYPSIMQAHNLCYTTLLDSNTAELLKLKQDVDYSVTPNGDYFVKPHVRKGLLPIILADLLNARKKAKADLKKETDPFKKAVLDGRQLALKVSANSVYGFTGATNGRLPCLAISSSVTSYGRQMIEKTKDVVEKRYRIENGYSHDAVVIYGDTDSVMVKFGVKTLPEAMKLGEEAANYVSDQFPNPIKLEFEKVYFPYLLISKKRYAGLFWTRTDTYDKMDSKGIETVRRDNCPLVSYVIDTALRKMLIDQDVEGAQLFTKKVISDLLQNKIDMSQLVITKALSKTDYAAKMAHVELAERMRKRDAGSAPAIGDRVAYVIIKGAQGDQFYMRSEDPIYVLENNIPIDAKYYLENQLSKPLLRIFEPILGEKASSLLHGDHTRTISMAAPSVGGIMKFAVKVETCLGCKAPIKKGKTALCENCLNRSAELYQRQVAQVNDLEVRFARLWTQCQRCQGSMHQDVICTSRDCPIFYMRIAEHKKLQQSVDLLKRFDEMSW
# notes: DNA polymerase delta catalytic subunit Pol3, S. pombe; prey plasmid named pACT-Pol3 in the results and pGAD2F-Pol3 in the methods; also called Gal4-Pol3; pACT-Pol3; source: yeast two-hybrid fusion, in S. cerevisiae CTY10-5d
# Experiments:
# Assay in all cases: two-hybrid; LexA-Cdc1 bait (pBTM116 or pBTM116BN) with Gal4-Pol3 prey and co-expressed c-myc-tagged Cdc27 (pAA-Cdc27) in S. cerevisiae CTY10-5d; ONPG liquid culture beta-galactosidase assay, mean of triplicates, as percent of wild-type Cdc1
# Details in all cases: partners not purified
# [1] = biological target: T1, Cdc1-A4 (Schizosaccharomyces pombe, UniProt P87324 1-462, Pro303Ala)
# T1 construct: Cdc1, S. pombe, point mutant; source: yeast two-hybrid fusion, in S. cerevisiae CTY10-5d
# T1 sequence (looked up): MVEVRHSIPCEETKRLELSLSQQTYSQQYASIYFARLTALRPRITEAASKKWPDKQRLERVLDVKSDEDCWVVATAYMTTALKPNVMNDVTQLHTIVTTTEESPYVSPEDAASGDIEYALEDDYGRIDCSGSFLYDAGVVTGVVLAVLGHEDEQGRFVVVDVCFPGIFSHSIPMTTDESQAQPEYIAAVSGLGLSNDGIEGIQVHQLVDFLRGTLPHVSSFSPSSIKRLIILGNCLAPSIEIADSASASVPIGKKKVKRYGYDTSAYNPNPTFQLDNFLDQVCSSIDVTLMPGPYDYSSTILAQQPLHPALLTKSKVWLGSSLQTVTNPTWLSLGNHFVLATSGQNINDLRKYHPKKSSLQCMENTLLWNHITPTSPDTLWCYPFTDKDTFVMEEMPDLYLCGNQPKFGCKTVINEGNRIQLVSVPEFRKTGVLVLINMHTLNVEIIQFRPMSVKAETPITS
# [2] = biological target: T2, Cdc1-A3 (Schizosaccharomyces pombe, UniProt P87324 1-462, Asp296Ala)
# T2 construct: Cdc1, S. pombe, point mutant; source: yeast two-hybrid fusion, in S. cerevisiae CTY10-5d
# T2 sequence (looked up): T1 sequence (looked up) with D296A, A303P
# [3] = biological target: T3, Cdc1-J21 (Schizosaccharomyces pombe, UniProt P87324 1-462, Leu-GlyValProGlnLeu-Asp)
# T3 construct: Cdc1, S. pombe, with a pentapeptide inserted after residue 275; source: yeast two-hybrid fusion, in S. cerevisiae CTY10-5d
# T3 sequence (looked up): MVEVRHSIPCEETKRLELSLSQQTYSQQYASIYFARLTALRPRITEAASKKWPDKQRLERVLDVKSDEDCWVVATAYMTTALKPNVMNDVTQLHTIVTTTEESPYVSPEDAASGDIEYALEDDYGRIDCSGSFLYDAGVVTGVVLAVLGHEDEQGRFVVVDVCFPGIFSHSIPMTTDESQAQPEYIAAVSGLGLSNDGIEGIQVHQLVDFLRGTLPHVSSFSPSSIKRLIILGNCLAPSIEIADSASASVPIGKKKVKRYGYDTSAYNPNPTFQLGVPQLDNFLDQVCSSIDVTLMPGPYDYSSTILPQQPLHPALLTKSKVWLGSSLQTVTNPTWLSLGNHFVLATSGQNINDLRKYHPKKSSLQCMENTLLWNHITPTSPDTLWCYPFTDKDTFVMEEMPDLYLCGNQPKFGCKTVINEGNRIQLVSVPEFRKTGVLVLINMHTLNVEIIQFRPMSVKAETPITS
# [4] = biological target: T4, Cdc1-J15 (Schizosaccharomyces pombe, UniProt P87324 1-462, Gln-GlyValProLeuGln-Val)
# T4 construct: Cdc1, S. pombe, with a pentapeptide inserted after residue 203; source: yeast two-hybrid fusion, in S. cerevisiae CTY10-5d
# T4 sequence (looked up): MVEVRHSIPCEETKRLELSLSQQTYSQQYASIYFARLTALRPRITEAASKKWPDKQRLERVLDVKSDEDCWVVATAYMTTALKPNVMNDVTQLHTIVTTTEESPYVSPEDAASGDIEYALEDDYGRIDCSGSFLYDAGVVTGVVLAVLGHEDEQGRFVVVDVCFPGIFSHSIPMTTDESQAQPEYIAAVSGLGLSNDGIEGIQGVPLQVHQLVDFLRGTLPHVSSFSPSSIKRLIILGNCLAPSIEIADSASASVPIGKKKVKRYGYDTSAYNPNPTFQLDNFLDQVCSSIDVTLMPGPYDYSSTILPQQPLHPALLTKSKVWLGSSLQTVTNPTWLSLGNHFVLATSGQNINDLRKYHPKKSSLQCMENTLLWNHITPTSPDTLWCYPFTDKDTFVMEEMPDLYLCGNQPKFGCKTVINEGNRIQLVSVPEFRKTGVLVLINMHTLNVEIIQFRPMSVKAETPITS
binder,measurement,setting,value
B1,"two-hybrid beta-galactosidase activity, % of wild-type Cdc1",[1],< 1%
same,"two-hybrid beta-galactosidase activity, % of wild-type Cdc1",[2],< 1%
same,"two-hybrid beta-galactosidase activity, % of wild-type Cdc1",[3],< 1%
same,"two-hybrid beta-galactosidase activity, % of wild-type Cdc1",[4],1%

# Reference: paper PMC2734569, “Functional mapping of the fission yeast DNA polymerase δ B-subunit Cdc1 by site-directed and random pentapeptide insertion mutagenesis” (BMC Molecular Biology, 2009)
